Data on 4 molecules can be found in patent publication US20230400471A1, “SYSTEMS, COMPOSITIONS AND METHODS OF DETERMINING VIABILITY OF EMBRYOS USING THE SAME” (BioIncept, LLC, priority 2020, published 2023).

A word on the Kd: it is the concentration at which binding is half-saturated.

Where “and” joins values, the source holds several entries; their conditions need not be identical. Equal entries are not always repeated. Where two headings read alike, the source gives them in different places. Ends that are not written are not given here.

Assay [1] deals with T1, rabbit monoclonal anti-PIF antibody Clone #30.
T1 chain 1: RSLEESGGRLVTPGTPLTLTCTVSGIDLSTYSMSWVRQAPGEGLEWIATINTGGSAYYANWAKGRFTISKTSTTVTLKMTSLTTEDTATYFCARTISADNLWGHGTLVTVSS
T1 chain 2: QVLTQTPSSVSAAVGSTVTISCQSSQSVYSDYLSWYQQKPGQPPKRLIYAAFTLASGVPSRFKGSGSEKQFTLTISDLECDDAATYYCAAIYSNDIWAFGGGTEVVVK
The assay can be described thus: ELISA; Clone #30 via goat anti-rabbit; biotin-PIF tracer without unlabeled PIF. Background: An ELISA detects its analyte on a solid surface through an enzyme-linked reagent.

In another assay the test system is PIF. The assay can be described thus: Surface plasmon resonance (SPR), captured Clone #30 with PIF as analyte. It counts as binding, human. Particulars: PIF 2-fold concentration series up to 10 μM, duplicate. An excerpt:
(§1) The PIF-binding specificity of the rabbit monoclonal antibody Clone #30 described in Example 1 was quantitatively characterized by surface plasmon resonance (SPR). SPR is an optical technique for detecting the interaction of two different molecules in which one is mobile and one is fixed on a thin gold film. In SPR analysis, affinity-purified ligand polypeptides are immobilized on a sensor chip inserted into the flow chamber of an instrument, such as Biacore 3000 instrument (Biacore, Uppsala, Sweden). Addition of a second polypeptide, the flow-through analyte, to the chamber, results in binding to the immobilized polypeptide ligand, producing a small change in refractive index at the gold surface, which can be quantified with precision. Binding affinities can be obtained from the ratio of rate constants, yielding a straightforward characterization of protein-protein interaction.
(§2) In the work described here, purified rabbit monoclonal antibody Clone #30 was used as the ligand polypeptide and PIF in solution was used as the analyte to evaluate their binding affinity. To immobilize rabbit monoclonal antibody Clone #30 onto a chip, a sheep polyclonal anti-rabbit antibody was used. The sheep anti-rabbit antibody was amine coupled to a CM5 sensor chip using standard NHS/EDC activation. […]
(In general: Surface plasmon resonance follows binding to a sensor surface in real time, without labels.)

In another assay the test system is scrambled PIF (SCR). The assay can be described thus: Surface plasmon resonance (SPR), captured Clone #30 with scrambled PIF as analyte. Format: binding. As to conditions: SCR 2-fold concentration series up to 10 μM, duplicate.
Text: as §1, §2

Assay [2] addresses T2, preimplantation factor (PIF), full-length 15-amino acid peptide (human). The assay can be described thus: SPR, Clone #30 captured on sheep anti-rabbit CM5 chip, PIF as analyte, global 1:1 fit.
The target in assay [3] is T2, preimplantation factor (PIF), …. Kind of assay: SPR: Clone #30 captured (about 2000 RU) on sheep anti-rabbit antibody amine-coupled to a CM5 chip; PIF as analyte in a 2-fold series up to 10 µM; global 1:1 fit.
For assay [4] the target is unchanged. The description is as above. This is another data set of the same source.
For assay [5], the target named is T1, rabbit monoclonal anti-PIF antibody …. The assay can be described thus: competitive ELISA; Clone #30 via goat anti-rabbit; competitor biotin-PIF tracer.
Assay [6] has the same target. The description is as above.
Assay [7] has the same target. Kind of assay: competitive microarray immunoassay; Clone #30 on goat anti-rabbit spots; competitor A647-sPIF tracer.

With MVRIKPGSANKPSDD (not fully specified) [biotin labeled PIF], in assay [1], the % Bound, tracer alone (0 pg/mL PIF) stood at 96%; the AvgNetRLU, tracer alone (0 pg/mL PIF) is 2.28e+07 RLU; the MeanValue (RLU), tracer alone (0 pg/mL PIF) turned out to be 2.8e+07 RLU; the Values (RLU), tracer alone (0 pg/mL PIF) is 2.86e+07 RLU and 2.74e+07 RLU.

B1: Clone #30: Rabbit monoclonal antibody against human PIF peptide; heavy chain SEQ ID NO: 2, light chain SEQ ID NO: 7 (antibody, listed as Homo sapiens)
heavy: METGLRWLLLVAVLKGVQCRSLEESGGRLVTPGTPLTLTCTVSGIDLSTYSMSWVRQAPGEGLEWIATINTGGSAYYANWAKGRFTISKTSTTVTLKMTSLTTEDTATYFCARTISADNLWGHGTLVTVSSGQPKAPSVFPLAPCCGDTPSSTVTLGCLVKGYLPEPVTVTWNSGTLTNGVRTFPSVRQSSGLYSLSSVVSVTSSSQPVTCNVAHPATNTKVDKTVAPSTCSKPTCPPPELLGGPSVFIFPPKPKDTLMISRTPEVTCVVVDVSQ
light: MDTRAPTQLLGLLLLWLPGATFAQVLTQTPSSVSAAVGSTVTISCQSSQSVYSDYLSWYQQKPGQPPKRLIYAAFTLASGVPSRFKGSGSEKQFTLTISDLECDDAATYYCAAIYSNDIWAFGGGTEVVVKGDPVAPTVLIFPPSADQVATGTVTIVCVANKYFPDVTVTWEVDGTTQTTGIENSKTPQNSADCTYNLSSTLTLTSTQYNSHKEYTCKVTQGTTSVVQSFNRGDC
Consider B1, for which the “binding of PIF to Clone #30 by SPR” value in the assay on PIF was “significant and concentration dependent binding response”. The equilibrium dissociation constant (Kd) on PIF (SPR, 1:1 interaction model) was roughly 15 nM. For the same molecule, the “binding of scrambled PIF (SCR) to Clone #30 by SPR” value with scrambled PIF (SCR) is listed as “no binding was observed”.

B2: rabbit monoclonal anti-PIF antibody Clone #30 (antibody, V domains shown)
VH: RSLEESGGRLVTPGTPLTLTCTVSGIDLSTYSMSWVRQAPGEGLEWIATINTGGSAYYANWAKGRFTISKTSTTVTLKMTSLTTEDTATYFCARTISADNLWGHGTLVTVSS
VL: QVLTQTPSSVSAAVGSTVTISCQSSQSVYSDYLSWYQQKPGQPPKRLIYAAFTLASGVPSRFKGSGSEKQFTLTISDLECDDAATYYCAAIYSNDIWAFGGGTEVVVK
On to B2, for which the dissociation constant (Kd) in assay [2] came out at 15 nM; in [3], 10.7 nM; in [4], 17.5 nM.

In assay [5], MVRIKPGSANKPSDD (modifications not checked) [preimplantation factor (PIF), full-length 15-amino acid peptide] registered a % Bound at 1 pg/mL of 96.6%, a % Bound at 10 pg/mL of 93.6%, a % Bound at 25 pg/mL of 91.1% and a % Bound at 250 pg/mL of 81.4%. In assay [5], the % Bound at 500 pg/mL was determined as 69.9%, the AvgNetRLU at 1 pg/mL was determined as 2.3e+07 RLU, the AvgNetRLU at 10 pg/mL stood at 2.23e+07 RLU and the AvgNetRLU at 25 pg/mL turned out to be 2.16e+07 RLU. In addition, in assay [5], the AvgNetRLU at 250 pg/mL came to 1.93e+07 RLU, the AvgNetRLU at 500 pg/mL was 1.66e+07 RLU, the MeanValues (RLU) at 1 pg/mL was determined as 2.82e+07 RLU and the MeanValues (RLU) at 10 pg/mL amounted to 2.74e+07 RLU. Also, in assay [5], the MeanValues (RLU) at 25 pg/mL turned out to be 2.68e+07 RLU; the MeanValues (RLU) at 250 pg/mL turned out to be 2.45e+07 RLU; the MeanValues (RLU) at 500 pg/mL was 2.18e+07 RLU; the Values (RLU) at 1 pg/mL is 2.86e+07 RLU and 2.77e+07 RLU. In addition, in assay [5], the Values (RLU) at 10 pg/mL is 2.79e+07 RLU and 2.7e+07 RLU; the Values (RLU) at 25 pg/mL was 2.72e+07 RLU and 2.65e+07 RLU; the Values (RLU) at 250 pg/mL was 2.48e+07 RLU and 2.43e+07 RLU; the Values (RLU) at 500 pg/mL was 2.23e+07 RLU and 2.13e+07 RLU. In [6], this molecule yielded a % Bound at 1 pg/mL of 93.7%, a % Bound at 5 pg/mL of 92.8%, a % Bound at 10 pg/mL of 91.7% and a % Bound at 25 pg/mL of 90%. In addition, in assay [6], the % Bound at 50 pg/mL was determined as 87%, the % Bound at 100 pg/mL amounted to 89.9%, the % Bound at 250 pg/mL came out at 77.3% and the % Bound at 500 pg/mL was 61.1%. In assay [6], this molecule registered a % Bound at 1000 pg/mL of 49.8%, a % Bound at 2000 pg/mL of 27%, an AvgNetRLU at 1 pg/mL of 2.23e+07 RLU and an AvgNetRLU at 5 pg/mL of 2.21e+07 RLU. In [6], this molecule displayed an AvgNetRLU at 10 pg/mL of 2.18e+07 RLU, an AvgNetRLU at 25 pg/mL of 2.14e+07 RLU, an AvgNetRLU at 50 pg/mL of 2.07e+07 RLU and an AvgNetRLU at 100 pg/mL of 2.14e+07 RLU. Besides, in assay [6], the AvgNetRLU at 250 pg/mL stood at 1.84e+07 RLU, the AvgNetRLU at 500 pg/mL came to 1.45e+07 RLU, the AvgNetRLU at 1000 pg/mL was determined as 1.18e+07 RLU and the AvgNetRLU at 2000 pg/mL came to 6.41e+06 RLU. In [6], the MeanValue (RLU) at 1 pg/mL amounted to 2.75e+07 RLU, the MeanValue (RLU) at 5 pg/mL came to 2.73e+07 RLU, the MeanValue (RLU) at 10 pg/mL was 2.7e+07 RLU and the MeanValue (RLU) at 25 pg/mL was determined as 2.66e+07 RLU. For the same molecule, in assay [6], the MeanValue (RLU) at 50 pg/mL is 2.59e+07 RLU, the MeanValue (RLU) at 100 pg/mL worked out at 2.66e+07 RLU, the MeanValue (RLU) at 250 pg/mL was 2.36e+07 RLU and the MeanValue (RLU) at 500 pg/mL was 1.97e+07 RLU. Moreover, in assay [6], the MeanValue (RLU) at 1000 pg/mL came out at 1.7e+07 RLU; the MeanValue (RLU) at 2000 pg/mL was 1.16e+07 RLU; the Values (RLU) at 1 pg/mL was 2.77e+07 RLU and 2.73e+07 RLU; the Values (RLU) at 5 pg/mL was 2.75e+07 RLU and 2.7e+07 RLU. In assay [6], the Values (RLU) at 10 pg/mL is 2.72e+07 RLU and 2.68e+07 RLU; the Values (RLU) at 25 pg/mL was determined as 2.66e+07 RLU; the Values (RLU) at 50 pg/mL was 2.64e+07 RLU and 2.53e+07 RLU; the Values (RLU) at 100 pg/mL is 2.69e+07 RLU and 2.62e+07 RLU. Moreover, in assay [6], the Values (RLU) at 250 pg/mL is 2.37e+07 RLU and 2.34e+07 RLU; the Values (RLU) at 500 pg/mL was 2.03e+07 RLU and 1.91e+07 RLU; the Values (RLU) at 1000 pg/mL is 1.75e+07 RLU and 1.66e+07 RLU; the Values (RLU) at 2000 pg/mL is 1.19e+07 RLU and 1.14e+07 RLU. Further, in [7], the % B/B0 at 15.625 pg/mL came to 122%, the % B/B0 at 31.25 pg/mL turned out to be 69%, the % B/B0 at 62.5 pg/mL came out at 38% and the % B/B0 at 125 pg/mL came out at 43%. Besides, in assay [7], the % B/B0 at 250 pg/mL was found to be 19%, the Average Mean RFU of bound tracer at 15.625 pg/mL came to 10900 RFU, the Average Mean RFU of bound tracer at 31.25 pg/mL is 6170 RFU and the Average Mean RFU of bound tracer at 62.5 pg/mL worked out at 3350 RFU. Further, in assay [7], the Average Mean RFU of bound tracer at 125 pg/mL came to 3850 RFU, the Average Mean RFU of bound tracer at 250 pg/mL was determined as 1690 RFU and the Average Mean RFU of bound tracer at 500 pg/mL came to 285 RFU.
